Source: US12180280 (dated 2024)
Where two headings read alike, the source gives them in different places.

T1: human CD3 epsilon (human, UniProt P07766)
T1 chain: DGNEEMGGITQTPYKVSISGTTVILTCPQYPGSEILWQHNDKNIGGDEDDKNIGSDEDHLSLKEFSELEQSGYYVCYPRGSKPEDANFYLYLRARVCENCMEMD

T2: monkey CD3 epsilon (cynomolgus monkey, UniProt Q95LI5)
T2 chain: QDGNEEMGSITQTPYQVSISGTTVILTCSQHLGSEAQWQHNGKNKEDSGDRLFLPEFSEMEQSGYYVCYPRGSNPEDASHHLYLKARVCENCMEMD


How the values were obtained:
Assay in all cases: SPR
[1] = biological target: T1, human CD3 epsilon
[2] = biological target: T1, human CD3 epsilon
[3] = biological target: T2, monkey CD3 epsilon
[4] = biological target: T2, monkey CD3 epsilon
[5] = biological target: T1, human CD3 epsilon

| Binder | Kd [1] | Kd [2] | Kd [3] | Kd [4] | Kd [5] |
| --- | --- | --- | --- | --- | --- |
| 15H2L3 (antibody, V domains shown) VH: EVQLLESGGGLVQPGGSLRLSCAASGFTFNTYAMNWVRQAPGKGLEWVARIRSKYNNYATYYAISVKDRFTISRDNSKNTLYLQMNSLRAEDTAVYYCVKHGNFGNSYLSYWAYWGQGTLVTVSS VL: QAVVTQEPSLTVSPGGTVTLTCQSSTGAVTTNNYANWVQQKPGHAFRGLIGGTKQRAPGVPARFSGSLLGGKAALTLSGVQPEDEAEYYCVLWYSNLWVFGGGTKLTVL |  | 104 pM | 777 pM |  |  |
| 15H3L2 (antibody, V domains shown) VH: EVQLLESGGGLVQPGGSLRLSCAASGFTFNTYAMNWVRQAPGKGLEWVARIRSKYNNYATYYAISVKDRFTISRDDSKNTLYLQMNSLRAEDTAMYYCVRHGNFGNSYLSYWAYWGQGTLVTVSS VL: QTVVTQEPSLTVSPGGTVTLTCQSSTGAVTTNNYANWVQQKPGQAPRALIGGTKQRAPGTPARFSGSLLGGKAALTLSGVQPEDEAEYYCVLWYSNLWVFGGGTKLTVL |  | 205 pM | 591 pM |  |  |
| MBS303-1 (CD3 arm) (antibody, V domains shown) VH: EVQLLESGGGLVQPGGSLRLSCAASGFTFNTYAMNWVRQAPGKGLEWVARIRSKYNNYATYYAISVKDRFTISRDNSKNTLYLQMNSLRAEDTAVYYCVKHGNFGNSYLSYWAYWGQGTLVTVSS VL: QAVVTQEPSLTVSPGGTVTLTCQSSTGAVTTNNYANWVQQKPGHAFRGLIGGTKQRAPGVPARFSGSLLGGKAALTLSGVQPEDEAEYYCVLWYSNLWVFGGGTKLTVL | 1990 pM |  |  |  |  |
| 19-37 (antibody, V domains shown) VH: EVKLLESGGGLVQPKGSLKLSCAASGFTFNTYAMNWVRQAPGKGLEWVARIRSKYNNYATYYAISVKDRFTISRDDSQSILYLQMNNLKTEDTAMYYCVRHGNFGNSYISYWAYWGQGTLVTVSA VL: QAVVTQESALTTSPGETVTLTCRSSTGAVTTNNYANWVQEKPDHLFTGLIGGTRLSAPGVPARFSGSLIGDKAALTITGAQTEDEAIYFCVLWYSNLWVFGGGTKLTVL |  |  |  | 3.79 pM | 6.28 pM |
| 19-26 (antibody, V domains shown) VH: EVKLLESGGGLVQPKGSLKLSCAASGFTFNTYAMNWVRQAPGKGLEWVARIRSKYNNYATYYADSVKDRFTISRDDSQSILYLQMNNLKTEDTAMYYCVRHGNFGNSYISWWAYWGQGTLVTVSA VL: QAVVTQESALTTSPGETVTLTCKSSTGAVTTSNYANWVQEKPDHLFTGLIGGTNLHAPGVPARFSGSLIGDKAALTITGAQTEDEAIYFCALWYSNLWVFGGGTKLTVL |  |  |  | 237 pM | 184 pM |
| 19-15 (antibody, V domains shown) VH: EVKLLESGGGLVQPKGSLKLSCAASGFTFNTYAMNWVRQAPGKGLEWVARIRSKYNNYATYYAISVKDRFTISRDDSQSILYLQMNNLKTEDTAMYYCVRHGNFGNSYLSYWAYWGQGTLVTVSA VL: QAVVTQESALTTSPGETVTLTCQSSTGAVTTNNYANWVQEKPDHLFTGLIGGTKQRAPGVPARFSGSLIGDKAALTITGAQTEDEAIYFCVLWYSNLWVFGGGTKLTVL |  |  |  | 232 pM | 143 pM |

The next lines start with the values.

| Kd [1] | Kd [2] | Kd [3] | Kd [4] | Kd [5] | Binder |
| --- | --- | --- | --- | --- | --- |
| 5600 pM |  |  |  |  | CD20-TCB (CD3 arm) (antibody) chain 1: not shown chain 2: QVQLVQSGAEVKKPGSSVKVSCKASGYAFSYSWINWVRQAPGQGLEWMGRIFPGDGDTDYNGKFKGRVTITADKSTSTAYMELSSLRSEDTAVYYCARNVFDGYWLVYWGQGTLVTVSSASTKGPSVFPLAPSSKSTSGGTAALGCLVEDYFPEPVTVSWNSGALTSGVHTFPAVLQSSGLYSLSSVVTVPSSSLGTQTYICNVNHKPSNTKVDEKVEPKSCDKTHTCPPCPAPEAAGGPSVFLFPPKPKDTLMISRTPEVTCVVVDVSHEDPEVKFNWYVDGVEVHNAKTKPREEQYNSTYRVVSVLTVLHQDWLNGKEYKCKVSNKALGAPIEKTISKAKGQPREPQVCTLPPSRDELTKNQVSLSCAVKGFYPSDIAVEWESNGQPENNYKTTPPVLDSDGSFFLVSKLTVDKSRWQQGNVFSCSVMHEALHNHYTQKSLSLSP chain 3: EVQLLESGGGLVQPGGSLRLSCAASGFTFSTYAMNWVRQAPGKGLEWVSRIRSKYNNYATYYADSVKGRFTISRDDSKNTLYLQMNSLRAEDTAVYYCVRHGNFGNSYVSWFAYWGQGTLVTVSSASVAAPSVFIFPPSDEQLKSGTASVVCLLNNFYPREAKVQWKVDNALQSGNSQESVTEQDSKDSTYSLSSTLTLSKADYEKHKVYACEVTHQGLSSPVTKSFNRGEC chain 4: DIVMTQTPLSLPVTPGEPASISCRSSKSLLHSNGITYLYWYLQKPGQSPQLLIYQMSNLVSGVPDRFSGSGSGTDFTLKISRVEAEDVGVYYCAQNLELPYTFGGGTKVEIKRTVAAPSVFIFPPSDRKLKSGTASVVCLLNNFYPREAKVQWKVDNALQSGNSQESVTEQDSKDSTYSLSSTLTLSKADYEKHKVYACEVTHQGLSSPVTKSFNRGEC |
|  | 96.7 pM | 616 pM |  |  | 15H3L3 (antibody, V domains shown) VH: EVQLLESGGGLVQPGGSLRLSCAASGFTFNTYAMNWVRQAPGKGLEWVARIRSKYNNYATYYAISVKDRFTISRDDSKNTLYLQMNSLRAEDTAMYYCVRHGNFGNSYLSYWAYWGQGTLVTVSS VL: QAVVTQEPSLTVSPGGTVTLTCQSSTGAVTTNNYANWVQQKPGHAFRGLIGGTKQRAPGVPARFSGSLLGGKAALTLSGVQPEDEAEYYCVLWYSNLWVFGGGTKLTVL |
| 1790 pM |  |  |  |  | MBS303-2 (CD3 arm) (antibody, V domains shown) VH: EVQLLESGGGLVQPGGSLRLSCAASGFTFNTYAMNWVRQAPGKGLEWVARIRSKYNNYATYYAISVKDRFTISRDDSKNTLYLQMNSLRAEDTAMYYCVRHGNFGNSYLSYWAYWGQGTLVTVSS VL: QAVVTQEPSLTVSPGGTVTLTCQSSTGAVTTNNYANWVQQKPGHAFRGLIGGTKQRAPGVPARFSGSLLGGKAALTLSGVQPEDEAEYYCVLWYSNLWVFGGGTKLTVL |
|  | 3950 pM | 2270 pM |  |  | 26H2L3 (antibody, V domains shown) VH: EVQLLESGGGLVQPGGSLRLSCAASGFTFNTYAMNWVRQAPGKGLEWVARIRSKYNNYATYYADSVKDRFTISRDNSKNTLYLQMNSLRAEDTAVYYCVKHGNFGNSYISWWAYWGQGTLVTVSS VL: QAVVTQEPSLTVSPGGTVTLTCKSSTGAVTTSNYANWVQQKPGHAFRGLIGGTNLHAPGVPARFSGSLLGGKAALTLSGVQPEDEAEYYCALWYSNLWVFGGGTKLTVL |
|  | 864 pM | 192 pM |  |  | 26H3L3 (antibody, V domains shown) VH: EVQLLESGGGLVQPGGSLRLSCAASGFTFNTYAMNWVRQAPGKGLEWVARIRSKYNNYATYYADSVKDRFTISRDDSKNTLYLQMNSLRAEDTAMYYCVRHGNFGNSYISWWAYWGQGTLVTVSS VL: QAVVTQEPSLTVSPGGTVTLTCKSSTGAVTTSNYANWVQQKPGHAFRGLIGGTNLHAPGVPARFSGSLLGGKAALTLSGVQPEDEAEYYCALWYSNLWVFGGGTKLTVL |
|  | 516 pM | 5840 pM |  |  | 15H2L2 (antibody, V domains shown) VH: EVQLLESGGGLVQPGGSLRLSCAASGFTFNTYAMNWVRQAPGKGLEWVARIRSKYNNYATYYAISVKDRFTISRDNSKNTLYLQMNSLRAEDTAVYYCVKHGNFGNSYLSYWAYWGQGTLVTVSS VL: QTVVTQEPSLTVSPGGTVTLTCQSSTGAVTTNNYANWVQQKPGQAPRALIGGTKQRAPGTPARFSGSLLGGKAALTLSGVQPEDEAEYYCVLWYSNLWVFGGGTKLTVL |
|  |  |  | 347 pM | 222 pM | CD3-19 (antibody, V domains shown) VH: EVKLLESGGGLVQPKGSLKLSCAASGFTFNSYAMNWVRQAPGKGLEWVARIRSKYNNYATYYADSVKDRFTISRDDSQSILYLQMNNLKTEDTAMYYCVRHGNFGNSYLSYWAYWGQGTLVTVSA VL: QAVVTQESALTTSPGETVTLTCDSSTGAVTTSNYANWVQEKPDHLFTGLIGGTQRSAPGVPARFSGSLIGDKAALTITGAQTEDEAIYFCVLWYSNLWVFGGGTKLTVL |
